Assay: soluble on expression in E. coli; label from the status in PepcDB or PDB records

| Sequence | soluble on expression in E. coli |
| --- | --- |
| FPQLPPAPDDYPTFPDTSTWPVVFPELPAAPYGGPCRPPQHTSKAAAPRIPADRLPNHVAIVMDGNGRWATQRGLARTEGHKMGEAVVIDIACGAIELGIKWLSLYAFSTENWKRSPEEVRFLMGFNRDVVRRRRDTLKKLGVRIRWVGSRPRLWRSVINELAVAEEMTKSNDVITINYCVNYGGRTEITEATREIAREVAAGRLNPERITESTIARHLQRPDIPDVDLFLRTSGEQRSSNFMLWQAAYAEYIFQDKLWPDYDRRDLWAACEEYASRTRRFGSA | soluble |
| FRRTGIRRIIIGQDQILFESSDNTVQIFPLNTLKSVDLYSTYDEMIELKAHRQPKITLSKSWIKRKDYRFIVSYLRERSATSGYKYTDYR | not soluble |
| FSDAFETAFFSVSNIGLHARAYKDKLFVHTASLRSGNPYKQVDLLVLDAKGETVLQGATDDNGNALLNYTLNAGHVLVSRNGRDISILPFNQPALDLSEFAVAGRENPWFDVFAWSGRDLYRPGEMLRISALLRDRDGKPVKPQPVFLRLKQPDGKTFRETRLQPAEQGYLEFTQKIPSDAPTGRWRVEFRTDPASKEAVQGLAVRVEEFLPERMKLELSSAQPVLRAKAPFTLTADAAYLYGAPAAGNRFTANLAVAVEQHPLDNMPGWFFGDATL | not soluble |
| FSQHVSANLNLPSPSLNTPLNWLLTSVDEVMFNQQLHGSAVHINCAFPEPLYSDGEKSAYQSYLSSVEAWRKGGQTYTQRFVSPSFRDIPFCADRKGVVVIGSLSAEHAQEAKAFAQQMGWPVLADPQSGVSSDWSHYDLWLQQPKLASQLDECDLVLQFGSRIISKRLNQWINKQVSQSQQGRDVQYWFISPSLSRDNQTHLPQLHWVASPKSWVERVDVKSSSTQGWADGLLTDIAHVRAHISDEFLFSSASTLNEIALAADIEERTQSVDVFLGNSLFVRLVDMFGRLNTEVFTNRGASGIDGLFATASGVQRSRGKPLLMYIGDTSALYDLNSLALFSRNDLPSVLVVTNNDGGAIFDMLPVPQEHRTAYYQMPHGYQFEHAAKQFGLKYEKPTTLQMYQAMVADHLSSGQGTMLVEVQTPPSQAAELIKAFNKSLHASL | not soluble |
| GAKQVDVHDPVMTREGDTWYLFSTGPGITIYSSKDRVNWRYSDRAFATEPTWAKRVSPSFDGHLWAPDIYQHKGLFYLYYSVSAFGKNTSAIGVTVNKTLNPASPDYRWEDKGIVIESVPQRDLWNAIAPAIIADDHGQVWMSFGSFWGGLKLFKLNDDLTRPAEPQEWHSIAKLERSVLMDDSQAGSAQIEAPFILRKGDYYYLFASWGLCCRKGDSTYHLVVGRSKQVTGPYLDKTGRDMNQGGGSLLIKGNKRWVGLGHNSAYTWDGKDYLVLHAYEAADNYLQKLKILNLHWDGEGWPQVDEKELDSYISQRLK | soluble |
| GALGVVDEVHAGKEIGLQIYSLSQELYKGDVAANLRKVKDMGYSKLELAGYGKGAIGGVPMMDFKKMAEDAGLKIISSHVNPVDTSISDPFKAMIFKYSKEVTPKIMEYWKATAADHAKLGCKYLIQPMMPTITTHDEAKLVCDIFNQASDVIKAEGIATGFGYHNHNMEFNRVATKEQQEKVKGNPFAAFMKVGDQIYDLMLKDTDPSKVYFEMDVYWTVMGQNDPVEYMQKHPDRIKVLHIKDRAVFGQSGMMNFEMIFKQMYANGIKDYFVELEQMPDGRTQFAGVKDCADYLIKAPFVK | soluble |
| GAMAPHFKEELRNLNVRYQSNATLVCKVTGHPKPIVKWYRQGKEIIADGLKYRIQEFKGGYHQLIIASVTDDDATVYQVRATNQGGSVSGTASLEVEVPAKIHLPKTLEGMGAVHALRGEVVSIKIPFSGKPDPVITWQKGQDLIDNNGHYQVIVTRSFTSLVFPNGVERKDAGFYVVCAKNRFGIDQKTVELDVADVPDPPRGVKVSDVSRDSVNLTWTEPASDGGSKITNYIVEKCATTAERWLRVGQARETRYTVINLFGKTSYQFRVIAENKFGLSKPSEPSEPTITKEDKTRAMNYDEEV | soluble |
| GAMDPREVILCKDQDGKIGLRLKSIDNGIFVQLVQANSPASLVGLRFGDQVLQINGENCAGWSSDKAHKVLKQAFGEKITMTIRDRPFERTITMHKDSTGHVGFIFKNGKITSIVKDSSAARNGLLTEHNICEINGQNVIGLKDSQIADILSTSGTVVTITIMPAF | soluble |
| GAMESEEPVFSLEQNRDDAMAALASTPTFQQTFINSISTQAMDLCKKYNLYPSVMIAQAALESNWGRSELGKAPNYNLFGIKGSYNGKSVTMKTWEYSDSKGWYQINANFAKYPSHKESLEDNAKKLRNGPSWDSSYYKGAWRENAKTYKDATAWLQGRYATDNTYASKLNTLISSYNLTQYD | soluble |
| GAMQGEVSKAASADSTTEGTPADGFTVLSTKSLFLGQKLQVVQADIASIDSDAVVHPTNTDFYIGGEVGNTLEKKGGKEFVEAVLELRKKNGPLEVAGAAVSAGHGLPAKFVIHCNSPVWGADKCEELLEKTVKNCLALADDKKLKSIAFPSIGSGRNGFPKQTAAQLILKAISSYFVSTMSSSIKTVYFVLFDSESIGIYVQEMAKLDAN | soluble |
| GCSDGGREALVAAQRYPDDFNGIIAGAPALNFQVQKTLYHGWMARSNIGPDGKPILLASRLPLLHKAVLAKCDVLDGQIDGLIADPRLCNFDPASVQCTSSVDTTNCLTQQEVAVVKRFYEGPKDPDSGERLTVGGPQPGSELGWAGVFVPITAEQTVYSEKAASEAIRNMVFENNPVAGFDLSTLRFDKSTFDKLRPLHPLYDATNPDLAPFASRGGKLILWHGWADPNVSPLNTLAYHEAVEAKLGKARTEAFESLYMLPGVYHCGAGEGPSVIDLLTPMMAWVESNHAPD | not soluble |
| GDLVGPGCAEYAAANPTGPASVQGMSQDPVAVAASNNPELTTLTAALSGQLNPQVNLVDTLNSGQYTVFAPTNAAFSKLPASTIDELKTNSSLLTSILTYHVVAGQTSPANVVGTRQTLQGASVTVTGQGNSLKVGNADVVCGGVSTANATVYMIDSVLMPPA | soluble |
| GDSQDFSSSQSTSPVVHHRPIDQIALSTFEDTTPLKTDEVEQAWEHTQITYVDLRTGAHLGSGAERLARASLSLSKLYIADYVFDHGTQKEKEQAVEMIRKSDDDIADKLFDAYPNCIDSVAKKYQLEATQTYGRWG | not soluble |
| GDYERILYELEGMYQFGKRSHLDISAFSIASGVGYQLPLPMNPQFWLRYDFASGDKNHRDGRSNTFNQLFPFGHYYFGYIDQVGRQNIHDFNAQFTLHPQPWVTFLGQYHRFYLANKRDYLYNAAGAGTIRDITGQSGSHVGDEIDFTINFHLSRHQDVLLGYSKLFTGEFLKNTRPGVSPDLFYAQYNFRF | not soluble |
| GEEDLCAAFNVICDNVGKDWRRLARQLKVSDTKIDSIEDRYPRNLTERVRESLRIWKNTEKENATVAHLVGALRSCQMNLVADLVQEVQQARDLQNRSGAMSPMSWNSDASTSEASHHHHHH | soluble |
| GEITSAYFVCREATLQKLAAMQSIDSEQKLSALFEGSSQIISLFDRDSRFVWYNKAAYDKSIFLFGKFLCVGERFDSYLKEQYREGFNANFERVLKGEIVSYTREYTYQDKPFFLEIMLQPVYQKDELVGVSLIGNN | not soluble |
| GELDPVVTWGTTPGQGIGIDDPIPEPEDLADDKVDTARRAQKHMRVEPGETMEGYDIDVAFLGSCTNARLPDLRRAARIVKGREVADDVRAFVVPGSQRVQRAAEEEGLKDIFEEAGFEWRNAGCSMCLGMNEDQLEGDEACASSSNRNFVGRQGSKDGRTVLMNPRMVAAAAITGEVSDVRDLKEVTLA | not soluble |
| GETQPESAAFTAPSTDNPIRINFNENPLGMSPKAQAAARDAVVKANRYAKNEILMLGNKLAAHHQVEAPSILLTAGSSEGIRAAIEAYASLEAQLVIPELTYGDGEHFAKIAGMKVTKVKMLDNWAFDIEGLKAAVAAYSGPSIVYLVNPNNPTGTITPADVIEPWIASKPANTMFIVDEAYAEFVNDPRFRSISPMITQGAENIILLKTFSKIHAMAGMRVGYAVAHPTVIALMGRYVAGEKINFSGVDAALASMNDSAFITYSKKSNDVSRQILLKALEDLKLPYLPSEGNFVFHQLVVPLKDYQTHMADAGVLIGRAFPPADNWCRISLGTPQEMQWVADTMREFRKKSWI | soluble |
| GFNPIIGTGISYKLSKKWSLAAEAFYSRRKVTYTSEVKDQNYIDRNTIIINNNPVTFEVSTTFTGTTKGEFDIHYLEFPLLAQYAIGNNWQIHAGMYYSWAFSKTNKGTATGIIGRTDISNPNTVTDKEYNYSKEVNSRYYGFVAGAQYQLSPAVALDLRATYSCKSLYKEDWEGVPYTLKDLYVQFTVKYFFIRAKD | not soluble |
| GGGGGGMADLFSTVQEKVAGKDVKIVFPEGLDERILEAVSKLAGNKVLNPIVIGNENEIQAKAKELNLTLGGVKIYDPHTYEGMEDLVQAFVERRKGKATEEQARKALLDENYFGTMLVYKGLADGLVSGAAHSTADTVRPALQIIKTKEGVKKTSGVFIMARGEEQYVFADCAINIAPDSQDLAEIAIESANTAKMFDIEPRVAMLSFSTKGSAKSDETEKVADAVKIAKEKAPELTLDGEFQFDAAFVPSVAEKKAPDSEIKGDANVFVFPSLEAGNIGYKIAQRLGNFEAVGPILQGLNMPVNDLSRGCNAEDVYNLALITAAQAL | soluble |
| GGGGGGMLNRVFLEGEIESSCWSVKKTGFLVTIKQMRFFGERLFTDYYVIYANGQLAYELEKHTKKYKTISIEGILRTYLERKSEIWKTTIEIVKIFNPKNEIVIDYKEI | soluble |
| GGGGSSGGSTGGGSGSGPVTIEIGSKGEELAFDKTELTVSAGQTVTIRFKNNSAVQQHNWILVKGGEAEAANIANAGLSAGPAANYLPADKSNIIAESPLANGNETVEVTFTAPAAGTYLYICTVPGHYPLMQGKLVVN | soluble |
| GGKDYPFARFNKTVQVPVYSEQEYQLYLHDDAWTKAETDHLFDLSRRFDLRFVVIHDRYDHQQFKKRSVEDLKERYYHICAKLANVRAVPGTD | soluble |
| GGRGGFGGRGGFGGRGGFG | soluble |
| GHHDKRFKAFIAHDGIFNMEMQYLETEEKWFANWDMGGAYWEKQNPTAQRTFANSPHLFVEKWDTPILCIHGEKDYRILANQAMAAFDAAVMRGVPAELLIYPDENHWVLKPQNGVLWQRTFFEWLDQWLKPN | not soluble |
| GHMAIQRRIRRVKTVQMTTNSPIHRSGSVLEPGNWQEYDPFLLLMEDIFERGTFDVHPHRGIETVTYVISGELEHFDSKAGHSTLGPGDVQWMTAGRGVVHKEDPASGSTVHSLQLWVNLPSAYKMTEPRYQNLRSKDMPVRKEEGATIRVFSGSSKGVKAPTKNIVPVTMVEMIVEPGTTVVQDLPGHYNGFLYILEGSGVFGADNIEGKAGQALFFSRHNRGEETELNVTAREKLRLLLYAGEPVNEPVVAYGPFVMNTPEQIREAIRDYQEGRFGR | soluble |
| GHMKQSHFFAHLSRLKLINRWPLMRNVRTENVSEHSLQVAMVAHALAAIKNRKFGGNVNAERIALLAMYHDASEVLTGDLPTPVKYFNSQIAQEYKAIEKIAQQKLVDMVPEELRDIFAPLIDEHAYSDEEKSLVKQADALCAYLKCLEELAAGNNEFLLAKTRLEATLEARRSQEMDYFMEIFVPSFHLSLDEISQDSPL | soluble |
| GHMSDLVTKFESLIISKYPVSFTKEQSAQAAQWESVLKSGQIQPHLDQLNLVLRDNTFIVSTLYPTSTDVHVFEVALPLIKDLVASSKDVKSTYTTYRHILRWIDYMQNLLEVSSTDKLEINHD | soluble |
| GHRVWIMYAQPYQVTLQEQQQELAQLEMARSALDSLSELICLQDCQGNLLTTNRAFDQFWEGRREEAITATASRVATRKSERKWTTDTQGRSCLLEVNLSSLVSPS | not soluble |

— the DeepSol protein solubility set
